For test [1], the system named is interaction between TP53 and MDM2 or between Iκβα and RelA. Put plainly: Comparison of altered biotinylation enzymes by the method of Example 2 (Example 4). It is filed as biochemical. Particulars: for specificity / non-specific signal of labeling: luminescence detection; for labeling activity on introduction of Q141R mutation into AVVA mutant: compared with AVVA mutant without Q141R. The protocol: In this Example, various altered biotinylation enzymes were evaluated by the method used in Example 2.
Specifically, by a method similar to that for AirID (SEQ ID NO: 3) in Example 2, the interaction between TP53 and MDM2 or between Iκβα and RelA was analyzed using BioID (SEQ ID NO: 1), TurboID (SEQ ID NO: 2), an AirID-S118G mutant (SEQ ID NO: 12), an AWA-R118S mutant (SEQ ID NO: 13), an AVVA-R118G mutant (SEQ ID NO: 14), an AWA-R118S, Q141R mutant (SEQ ID NO: 15), and an AVVA-R118G, Q141R mutant (SEQ ID NO: 16).
The results in the figures were standardized in that the dispensation amount of the magnetic beads on the wells of the plate was 75 nL. An exposure time at the time of luminescence detection with LAS4000 (manufactured by GE Healthcare) was set to 3 minutes for TurboID, and 10 minutes for the protein of any other sequence identification number. A signal value was obtained from a measurement image through use of Array-Pro Analyzer™.

Test [2] has as its target T1, FLAG-GST-fused MDM2 (UniProt P23804 1-489).
T1 construct: Immobilized on glutathione magnetic beads on the non-denatured protein array; Order of the parts follows the printed name FLAG-GST; also called FLAG-GST-fused immobilized substance (MDM2); not shown: FLAG tag protein; GST protein (glutathione S-transferase tag)
In words: proximity-biotinylation bead array, streptavidin-HRP luminescence; labeling 26°C 30 min; exposure 10 min.

Test [3] concerns the target T1, FLAG-GST-fused MDM2. In words: proximity-biotinylation bead array, streptavidin-HRP luminescence; labeling 26°C; exposure 10 min.
For test [4], the target named is T1, FLAG-GST-fused MDM2. Put plainly: proximity-biotinylation bead array, streptavidin-HRP luminescence; labeling 26°C 3 h; exposure 10 min.
Test [5] concerns the target T2, FLAG-GST-fused RelA (UniProt Q04206 1-551).
T2 construct: Immobilized on glutathione magnetic beads on the non-denatured protein array; Order of the parts follows the printed name FLAG-GST; also called FLAG-GST-fused immobilized substance (RelA); not shown: FLAG tag protein; GST protein (glutathione S-transferase tag)
Described as above.

Test [6] concerns the target T1, FLAG-GST-fused MDM2. In words: proximity-biotinylation bead array, streptavidin-HRP luminescence; labeling 26°C 1 h; exposure 10 min.
For test [7], the target named is T2, FLAG-GST-fused RelA. The test is described as above.
For test [8], the target named is T2, FLAG-GST-fused RelA. In words: proximity-biotinylation bead array, streptavidin-HRP luminescence; labeling 26°C 30 min; exposure 10 min.

Where a chain is given by its changes, count along the chain named. Numbers in names are those of the source.

T1 sequence (P23804 whole entry, the tested form may be a part): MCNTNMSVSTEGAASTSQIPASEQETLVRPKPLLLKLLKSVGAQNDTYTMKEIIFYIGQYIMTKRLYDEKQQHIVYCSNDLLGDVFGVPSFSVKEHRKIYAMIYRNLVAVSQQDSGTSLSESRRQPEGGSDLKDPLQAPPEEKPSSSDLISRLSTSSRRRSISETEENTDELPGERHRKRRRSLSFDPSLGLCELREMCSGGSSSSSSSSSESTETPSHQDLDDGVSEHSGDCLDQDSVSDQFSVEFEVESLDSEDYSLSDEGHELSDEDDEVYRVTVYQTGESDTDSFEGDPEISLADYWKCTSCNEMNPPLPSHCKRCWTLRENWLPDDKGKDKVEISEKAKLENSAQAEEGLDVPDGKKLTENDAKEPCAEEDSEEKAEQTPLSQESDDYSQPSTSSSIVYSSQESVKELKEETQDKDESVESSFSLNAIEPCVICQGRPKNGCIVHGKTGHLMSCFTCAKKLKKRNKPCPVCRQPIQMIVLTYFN
T2 sequence (Q04206 other isoform, or with tags, fused parts or gaps): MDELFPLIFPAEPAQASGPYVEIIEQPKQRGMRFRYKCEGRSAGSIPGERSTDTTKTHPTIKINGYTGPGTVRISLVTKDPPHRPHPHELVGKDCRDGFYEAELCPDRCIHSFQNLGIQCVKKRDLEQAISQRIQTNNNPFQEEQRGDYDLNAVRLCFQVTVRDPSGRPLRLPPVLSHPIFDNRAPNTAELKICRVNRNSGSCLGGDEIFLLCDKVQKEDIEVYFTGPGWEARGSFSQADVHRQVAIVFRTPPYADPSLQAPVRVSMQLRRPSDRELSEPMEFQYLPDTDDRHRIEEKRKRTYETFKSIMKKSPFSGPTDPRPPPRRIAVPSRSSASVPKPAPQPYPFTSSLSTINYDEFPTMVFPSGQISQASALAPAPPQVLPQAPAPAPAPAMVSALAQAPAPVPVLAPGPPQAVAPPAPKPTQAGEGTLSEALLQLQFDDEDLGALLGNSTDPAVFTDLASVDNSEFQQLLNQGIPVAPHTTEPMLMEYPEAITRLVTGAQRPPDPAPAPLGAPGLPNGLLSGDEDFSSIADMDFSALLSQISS

Regarding “BioID: proximity-dependent biotin ligase, SEQ ID NO: 1 [reference compound]”, the “specificity / non-specific signal of labeling” value in test [1] (75 nL magnetic beads) is on record as “low non-specificity”. Also, the biotin modification activity result in test [1] (compared with the other enzymes) was “lower biotin modification activity than the other enzymes”.

B1: AVVA-R118S mutant-fused Iκβα (other)
fusion protein: MSEQWSRKREILALLSSGHFVSGEELATQLGISRTAVSKHIAALEEYGVDIYSVKGKGYKLANPISLIDESKLKSAINNRCFYFDEIPSTNGFMLKHAEELKSGDICVAEYQSAGRGSRGRTWVSPYGCHLYFSLYWRFPQGMAQAMGLSLVVACSLVKVLKSFGVDGVGVKWPNDIYLNHKKLAGVLIEMSGQADSECHLVIGIGINMAMSEQQGKKIDQPWSDLSSLTSMPDKTELLIALQKQLKQDLELFEREGLKAFQPRWQEADLFYGKQIKLLMGENQVEGICRGIDEQGAVLLETDDGIQAFIGGEISLRAAMFQAAERPQEWAMEGPRDGLKKERLLDDRHDSGLDSMKDEEYEQMVKELQEIRLEPQEVPRSSEPWKQQLTEDGDSFLHLAIIHEEKALTMEVIRQVKGDLAFLNFQNNLQQTPLHLAVITNQPEIAEALLGAGCDPELRDFRGNTPLHLACEQGCLASVGVLTQSCTTPHLHSILKATNYNGHTCLHLASIHGYLGIVELLVSLGADVNAQEPCNGRTALHLAVDLQNPDLVSLLLKCGADVNRVTYQGYSPYQLTWGRPSTRIQQQLGQLTLENLQMLPESEDEESYDTESEFTEFTEDELPYDDCVFGGQRLTL
With B1, the signal value was 320 with FLAG-GST-fused MDM2 [2]; 330 with FLAG-GST-fused MDM2 [4]; 50000 in the test with FLAG-GST-fused RelA [5]; 310 with FLAG-GST-fused MDM2 [6]; 11100 with FLAG-GST-fused RelA [7]. Further, the binding result with FLAG-GST-fused MDM2 [3] is given as “no binding”.

B2: AVVA-R118G mutant-fused Iκβα (other)
fusion protein: B1 fusion protein with S118G
B2: the signal value in the test with FLAG-GST-fused MDM2 [2] amounted to 140; with FLAG-GST-fused RelA [8], 6900; with FLAG-GST-fused MDM2 [4], 310; in the test with FLAG-GST-fused RelA [5], 39400; with FLAG-GST-fused MDM2 [6] it was 230. Further, the binding result with FLAG-GST-fused MDM2 [3] is listed as “no binding”.

B3: AVVA-R118G,Q141R mutant-fused Iκβα (other)
fusion protein: B1 fusion protein with S118G, Q141R
For the molecule B3, the signal value in the test with FLAG-GST-fused MDM2 [2] was 550; with FLAG-GST-fused MDM2 [4] it was 430; in the test with FLAG-GST-fused RelA [5], over 65000; with FLAG-GST-fused MDM2 [6] it was 280; with FLAG-GST-fused RelA [7], 10100. Moreover, the binding result with FLAG-GST-fused MDM2 [3] was “no binding”.

B4: AirID: proximity-dependent biotin ligase, SEQ ID NO: 3 (protein)
chain: MKDNTVPLTLISILADGEFHSGEQLGEQLGMSRAAINKHIKTLRDWGVDVFRVQGKGYCLPEPIQLLDEEKIRQQLDEGSVTVLPVIDSTNQYLLDRLDELTSGDVCIAEYQQAGRGSRGRKWFSPFGANLYLSMYWRLEQGPAAAMGLSLVIGIVMAETLQKLGADGVRVKWPNDLYLNDRKLAGILVEMTGKTGDAAHIVIGAGINLSMREPETDEVDQSWINLQEAGITIDRNQLAARLIKDLRSALRQFEQQGLAPFLSRWEALDNFINRPVKLIIGDREIHGIARGINEQGALLLEQDGVIKPWIGGEISLRSA
modifications: AirID
With B4, in test [1] (75 nL magnetic beads), the “specificity / non-specific signal of labeling” value is given as “extremely high specificity”.

B5: AirID-S118G mutant: proximity-dependent biotin ligase, SEQ ID NO: 12 (protein)
chain: B4 chain with S118G
modifications: AirID_S118G
For B5, the “specificity / non-specific signal of labeling” value in test [1] (75 nL magnetic beads) is given as “extremely high specificity”.

B6: AWA-R118S, Q141R mutant: proximity-dependent biotin ligase, SEQ ID NO: 15 (protein)
chain: MSEQWSRKREILALLSSGHFVSGEELATQLGISRTAVSKHIAALEEYGVDIYSVKGKGYKLANPISLIDESKLKSAINNRCFYFDEIPSTNGFMLKHAEELKSGDICVAEYQSAGRGSRGRTWVSPYGCHLYFSLYWRFPRGMAQAMGLSLVVACSLVKVLKSFGVDGVGVKWPNDIYLNHKKLAGVLIEMSGQADSECHLVIGIGINMAMSEQQGKKIDQPWSDLSSLTSMPDKTELLIALQKQLKQDLELFEREGLKAFQPRWQEADLFYGKQIKLLMGENQVEGICRGIDEQGAVLLETDDGIQAFIGGEISLRAA
modifications: AVVA-R118S,Q141R
Turning to B6, the “specificity / non-specific signal of labeling” value in test [1] (75 nL magnetic beads) is reported as “extremely high specificity”. Further, the “labeling activity on introduction of Q141R mutation into AVVA mutant” value in test [1] is reported as “enhances its labeling activity”.

B7: AWA-R118S mutant: proximity-dependent biotin ligase, SEQ ID NO: 13 (protein)
chain: B6 chain with R141Q
modifications: AVVA-R118S
B7: in test [1] (75 nL magnetic beads), the “specificity / non-specific signal of labeling” value is “extremely high specificity”.

B8: AVVA-R118G mutant: proximity-dependent biotin ligase, SEQ ID NO: 14 (protein)
chain: B6 chain with S118G, R141Q
modifications: AVVA-R118G
For the molecule B8, the “specificity / non-specific signal of labeling” value in test [1] (75 nL magnetic beads) is recorded as “extremely high specificity”.

B9: AVVA-R118G, Q141R mutant: proximity-dependent biotin ligase, SEQ ID NO: 16 (protein)
chain: B6 chain with S118G
modifications: AVVA-R118G,Q141R
On to B9, for which the “specificity / non-specific signal of labeling” value in test [1] (75 nL magnetic beads) is “extremely high specificity”. Besides, the “labeling activity on introduction of Q141R mutation into AVVA mutant” value in test [1] is reported as “enhances its labeling activity”.

B10: TurboID: proximity-dependent biotin ligase, SEQ ID NO: 2 (protein)
chain: MKDNTVPLKLIALLANGEFHSGEQLGETLGMSRAAINKHIQTLRDWGVDVFTVPGKGYSLPEPIPLLNAKQILGQLDGGSVAVLPVVDSTNQYLLDRIGELKSGDACIAEYQQAGRGSRGRKWFSPFGANLYLSMFWRLKRGPAAAIGLGPVIGIVMAEALRKLGADKVRVKWPNDLYLQDRKLAGILVELAGITGDAAQIVIGAGINVAMRRVEESVVNQGWITLQEAGINLDRNTLAATLIRELRAALELFEQEGLAPYLPRWEKLDNFINRPVKLIIGDKEIFGISRGIDKQGALLLEQDGVIKPWMGGEISLRSAEK
modifications: TurboID
Turning to B10, the signal intensity entry in test [1] (75 nL magnetic beads, exposure 3 minutes for TurboID) is listed as “high signal intensity”. In test [1] (75 nL magnetic beads), the “specificity / non-specific signal of labeling” value is given as “a certain signal (non-specific) is found even for an interaction that should be negative”.

B11: AirID-S118G mutant-fused Iκβα (other)
fusion protein: MKDNTVPLTLISILADGEFHSGEQLGEQLGMSRAAINKHIKTLRDWGVDVFRVQGKGYCLPEPIQLLDEEKIRQQLDEGSVTVLPVIDSTNQYLLDRLDELTSGDVCIAEYQQAGRGGRGRKWFSPFGANLYLSMYWRLEQGPAAAMGLSLVIGIVMAETLQKLGADGVRVKWPNDLYLNDRKLAGILVEMTGKTGDAAHIVIGAGINLSMREPETDEVDQSWINLQEAGITIDRNQLAARLIKDLRSALRQFEQQGLAPFLSRWEALDNFINRPVKLIIGDREIHGIARGINEQGALLLEQDGVIKPWIGGEISLRSAMFQAAERPQEWAMEGPRDGLKKERLLDDRHDSGLDSMKDEEYEQMVKELQEIRLEPQEVPRSSEPWKQQLTEDGDSFLHLAIIHEEKALTMEVIRQVKGDLAFLNFQNNLQQTPLHLAVITNQPEIAEALLGAGCDPELRDFRGNTPLHLACEQGCLASVGVLTQSCTTPHLHSILKATNYNGHTCLHLASIHGYLGIVELLVSLGADVNAQEPCNGRTALHLAVDLQNPDLVSLLLKCGADVNRVTYQGYSPYQLTWGRPSTRIQQQLGQLTLENLQMLPESEDEESYDTESEFTEFTEDELPYDDCVFGGQRLTL
B11: the signal value is 240 with FLAG-GST-fused MDM2 [2]; 9570 with FLAG-GST-fused RelA [8]; 370 with FLAG-GST-fused MDM2 [4]; 51400 with FLAG-GST-fused RelA [5]; 220 with FLAG-GST-fused MDM2 [6]; 10200 with FLAG-GST-fused RelA [7]. Also, the binding result with FLAG-GST-fused MDM2 [3] is “no binding”.

Values taken from patent US20230251254A1, “METHOD FOR EVALUATING INTERACTION BETWEEN IMMOBILIZED SUBSTANCE IMMOBILIZED DIRECTLY OR INDIRECTLY ON SUBSTRATE AND PROXIMITY-DEPENDENT MODIFYING ENZYMELABELED SUBSTANCE TO BE ANALYZED” (CELLFREE SCIENCES CO.,LTD., priority 2020, published 2023).
